Assay results reported in article PMC3655159.

Experiments:
[1] = biological target: HSV-1 gB ectodomain gB730 (residues 31-730) (HSV-1 (strain KOS)) (UniProt P06437); experiment: SDS-PAGE under mildly denaturing conditions
[2] = biological target: HSV-1 gB ectodomain gB730 (residues 31-730) (HSV-1 (strain KOS)) (UniProt P06437); experiment: SDS-PAGE under mildly denaturing conditions + Western blot

HSV-1 gB ectodomain gB730 (residues 31-730) (from UniProt P06437 31-730) (domain or fragment)
stoichiometry N [1]: 3
stoichiometry N [2]: 3
